Numbering of substitutions follows the chain as printed.

Assay [1] concerns the target T1, human recombinant IL-23 (human, UniProt P29460 23-328).
T1 construct: p19-p40 heterodimer; also called hrIL-23; hIL-23
T1 sequence 1: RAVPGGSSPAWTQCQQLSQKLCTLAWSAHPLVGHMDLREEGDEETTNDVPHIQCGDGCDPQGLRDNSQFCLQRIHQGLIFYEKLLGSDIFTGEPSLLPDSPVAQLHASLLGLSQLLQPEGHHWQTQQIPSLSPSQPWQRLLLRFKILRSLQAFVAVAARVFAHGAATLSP
T1 sequence 2: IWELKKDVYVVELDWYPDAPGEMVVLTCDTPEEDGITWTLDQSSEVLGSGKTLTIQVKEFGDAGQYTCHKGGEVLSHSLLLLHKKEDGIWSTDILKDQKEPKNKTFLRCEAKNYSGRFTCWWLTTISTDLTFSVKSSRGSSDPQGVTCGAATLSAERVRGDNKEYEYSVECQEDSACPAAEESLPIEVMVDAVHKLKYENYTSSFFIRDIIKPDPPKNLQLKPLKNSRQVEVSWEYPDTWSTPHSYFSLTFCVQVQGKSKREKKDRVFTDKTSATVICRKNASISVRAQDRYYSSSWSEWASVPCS
Put plainly: blocking ELISA: biotinylated hrIL-23 preincubated with the titrated protein, binding to plate-immobilized IL-23R detected with HRP-streptavidin. As to the method:
(§1) In this experiment, IL-23R was immobilized on a plate. Biotinylated hrIL-23 was added to the plate either alone or after preincubation with individual IL-23p19 mAbs. Soluble IL-23R (IL-23R-Fc) was used as a positive control. IL-23 binding was detected with HRP-conjugated streptavidin. […] In contrast, when IL-12Rβ1 was immobilized on a plate, none of the IL-23p19 mAbs were able to inhibit IL-23/IL-12Rβ1 binding (data not shown).

In assay [2] the target is T1, human recombinant IL-23. Described as above. As for the experimental part:
as §1
This is another data set of the same source.

In assay [3] the target is mutant human IL-23 protein 3220 (human) (UniProt P29460). Kind of assay: MSD ELISA, coated IL-23 protein, Sulfo-TAG labeled mAb. For orientation: In an ELISA, binding on a coated surface is turned into a signal by an enzyme label.
For assay [4], the target named is mutant human IL-23 protein 3397 (human) (UniProt P29460). The assay is described as above.
The target of the next assay is T2, murine IL-23 (mouse, UniProt Q9EQ14 22-196; P43432 23-335).
T2 construct: also called mouse IL-23
T2 sequence (looked up) 1: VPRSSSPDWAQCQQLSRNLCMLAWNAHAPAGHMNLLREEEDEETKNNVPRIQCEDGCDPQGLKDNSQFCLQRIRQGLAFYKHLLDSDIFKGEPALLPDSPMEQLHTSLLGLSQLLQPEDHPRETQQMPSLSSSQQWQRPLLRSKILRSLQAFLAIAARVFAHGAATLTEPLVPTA
T2 sequence (looked up) 2: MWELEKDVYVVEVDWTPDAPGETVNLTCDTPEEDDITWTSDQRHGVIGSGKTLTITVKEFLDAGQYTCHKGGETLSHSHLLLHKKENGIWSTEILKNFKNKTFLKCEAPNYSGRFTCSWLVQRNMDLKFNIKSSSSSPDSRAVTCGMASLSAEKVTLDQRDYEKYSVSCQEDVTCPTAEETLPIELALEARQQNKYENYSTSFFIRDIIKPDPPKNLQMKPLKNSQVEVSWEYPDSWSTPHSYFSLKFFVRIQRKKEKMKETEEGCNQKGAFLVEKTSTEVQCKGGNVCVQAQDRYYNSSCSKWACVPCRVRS
Kind of assay: MSD ELISA: protein coated at 100 to 0 µg/mL, detected with 2 µg/mL Sulfo-TAG labeled mAb. As to the method: One-hundred and fifty μl of 5% MSD Blocker A buffer was added to each well and incubated for 1 hr at room temperature. Plates were washed three times with 0.1 M HEPES buffer, pH 7.4. These protein-charged ELISA micro-wells were incubated with 25 μl of 2 μg/mL MSD Sulfo-TAG labeled C1249, C1269, or CNTO 209 mAbs. After incubation for 2 hours with shaking at room temperature, plates were washed 3 times with 0.1 M HEPES buffer (pH 7.4). MSD Read Buffer T was diluted with distilled water (4 fold) and dispensed at a volume of 150 μl/well and analyzed with a SECTOR imager 6000.

Assay [5] concerns the target T1, human recombinant IL-23. Put plainly: ELISA: mAb immobilized on the plate, biotinylated IL-23 (bt.IL-23) titrated from about 0.01 to 100 ng/ml.
For another assay, the target named is T3, human recombinant IL-12 (human, UniProt P29459 23-219; P29460 23-328).
T3 construct: p35-p40 heterodimer; also called hrIL-12
T3 sequence (looked up) 1: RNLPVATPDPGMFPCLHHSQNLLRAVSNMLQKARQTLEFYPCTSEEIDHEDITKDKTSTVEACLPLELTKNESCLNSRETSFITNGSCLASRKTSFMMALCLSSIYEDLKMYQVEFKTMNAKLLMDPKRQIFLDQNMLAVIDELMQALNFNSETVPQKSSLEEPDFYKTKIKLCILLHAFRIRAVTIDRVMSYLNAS
T3 sequence (looked up) 2: T1 sequence 2
Kind of assay: cytokine capture ELISA: mAb coated on the plate, cytokine at 100 ng/ml, detected with biotinylated anti-p40 mAb and HRP-streptavidin. As to the method:
(§2) Purified mouse anti-human IL-23 mAbs were evaluated in cytokine capture ELISA to determine their antigen subunit specificity. Briefly, IL-23 mAbs were coated onto plates and incubated with 100 ng/ml (hr=human recombinant) hrIL-23, hrIL-12, and hrp40, respectively. Following incubation with biotinylated anti-p40 mAb, the binding was detected using HRP-conjugated streptavidin. An anti-p40 mAb and an anti-IL-12 mAb (20C2, Catalog No. 555065, BD Pharmingen, San Diego, Calif.) with known specificity were used as controls.

For assay [6], the target named is T4, human recombinant p40 monomer (human, UniProt P29460 23-328).
T4 construct: also called hrp40
T4 sequence (looked up): T1 sequence 2
The assay is described as above. As for the experimental part: as §2

The target of assay [7] is T1, human recombinant IL-23. Put plainly: competition ELISA: hIL-23 coated on the plate, 10 nM labeled C1269 mixed with the unlabeled competitor titrated from 3000 nM to 0. As to the method:
[…] of a 20 μg/ml hIL-23 coated on plate, mixed with 10 nM of labeled C1269 and serially diluted from 3000 nM to 0 unlabeled competitors, C1269 and C1249, in 25 μL. Relative binding was calculated by setting the signal in the absence of competitor to 100%.

Assay [8] has as its target T1, human recombinant IL-23. Put plainly: blocking ELISA: biotinylated hrIL-23 preincubated with the titrated mAb, binding to plate-immobilized IL-23R detected with HRP-streptavidin. As for the experimental part:
as §1

B1: Soluble IL-23R (IL-23R-Fc) (Fc fusion, UniProt Q5VWK5 24-353, looked up, not shown: a dimerising Fc or GST)
chain: GITNINCSGHIWVEPATIFKMGMNISIYCQAAIKNCQPRKLHFYKNGIKERFQITRINKTTARLWYKNFLEPHASMYCTAECPKHFQETLICGKDISSGYPPDIPDEVTCVIYEYSGNMTCTWNAGKLTYIDTKYVVHVKSLETEEEQQYLTSSYINISTDSLQGGKKYLVWVQAANALGMEESKQLQIHLDDIVIPSAAVISRAETINATVPKTIIYWDSQTTIEKVSCEMRYKATTNQTWNVKEFDTNFTYVQQSEFYLEPNIKYVFQVRCQETGKRYWQPWSSLFFHKTPETVPQVTSKAFQHDTWNSGLTVASISTGHLTSDNRGD
B1: the “IC50 (read off the curve)” value is about 0.05 µg/mL in the assay with human recombinant IL-23 [1] and about 0.04 µg/mL with human recombinant IL-23 [2].

B2: C1249 (antibody, V domains shown)
VH: EVQLVESGGGLVQPKGSLKLSCAASGFNFNTYAMHWVCQAPGKGLEWIGRIRSKSHNYATDYADPVKDRFTISRDDSQGLLYLLMNNLKTEDTAMYYCMREGIYGSFAYWGQGTLVTVSA
VL: DIVLTQSPASLAVSLGQRATISCRASKSVSSSAYSFFHWYQQKPGQPPKLLIYLASNLQSGVPARFSGSGSGTDFTLNIHPVEAEDAATYYCQHSGELPFTFGSGTKLEIK
notes: Purified mouse monoclonal antibody; also called IL-23p19 mAb; mouse anti-human IL-23 mAb
Take B2: in [3], the percent reduction of binding activity against wild-type human IL-23 is over 80%. The molecule further yielded a percent reduction of binding against wild-type human IL-23 in assay [4] of 95%. The binding result is “no binding” with murine IL-23, “binds” in the assay with human recombinant IL-23 [5], “no binding (tested: 100 ng/ml)” with human recombinant IL-12 and “no binding (tested: 100 ng/ml)” in assay [6].

B3: C1269 (antibody, V domains shown)
VH: DVNLVESGGGLVKPGGSLKLSCAASGFTFSSYTMSWVRQTPEKRLEWVATISSGGTYTYYPDSVKGRFTISRDNAKNTLYLQMSSLKSEDTAIFYCTRDNHAYDRGPFFDSWGQGATLTVSS
VL: DIVMSQSPSSLAVSVGEKVTMSCKSSQNLFYRNNQKNYLAWYQQKPGQSPTLLIYWTSTRESGVPDRFTGSGSGTDFTLTISRVKAEDLAVYYCQQYYSYPPTFGGGTKLEIK
notes: as for B2
For the molecule B3, in assay [3], the percent reduction of binding activity against wild-type human IL-23 is over 80%. In addition, the percent reduction of binding against wild-type human IL-23 in assay [4] was determined as 90%. In addition, the binding result was “no binding” in the assay with murine IL-23, “no binding (tested: 100 ng/ml)” with human recombinant IL-12 and “no binding (tested: 100 ng/ml)” in assay [6]. Moreover, the “IC50 (read off the curve)” value was about 20 nM with human recombinant IL-23 [7] and about 0.07 µg/mL with human recombinant IL-23 [8].

B4: C1273 (antibody, V domains shown)
VH: B3 VH with I93M, S111Y
VL: B3 VL with A12V, N33S, Y38H
notes: as for B2
Turning to B4, the binding result (with human recombinant IL-12; in assay [6]) was “no binding (tested: 100 ng/ml)” in each case. Further, in the assay with human recombinant IL-23 [8], the “IC50 (read off the curve)” value was about 0.1 µg/mL.

B5: C1275 (antibody, V domains shown)
VH: EVNLEESGGGLVQPGRSMKLSCVASGFTFSNYWMTWVRQSPEKGLEWVAEIRLKSNNYATHYAESVKGRFTISRDDSKSSVYLQMNNLRAEDTAIYYCTRGGGYDVGAWFAYWGQGTLVTVSA
VL: DIVLTQSPASLAVSLGQRATISCRASENVEYYGTGLIQWYQQKPGQPPKLLIYASSNVESGVPARFSGSGSGTDFSLYIHPVEEDDIAMYFCQQSRKVPSTFGGGTKLEIK
notes: as for B2
Turning to B5, the binding result with human recombinant IL-23 [5] is given as “binds”; in the assay with human recombinant IL-12, “no binding (tested: 100 ng/ml)”; in [6] it was “no binding (tested: 100 ng/ml)”.

The values are drawn from US20200138943A1 (Janssen / Centocor, published 2020).
